Test results as given in the Human Domainome abundance scans (Beltran et al. 2025).

B1: Probable E3 ubiquitin-protein ligase MID2, residues 191 to 235; numbered along this chain, Q9UJV3 (parent)
chain: RGITCLDHENEKVNMYCVSDDQLICALCKLVGRHRDHQVASLNDR

Variants of: B1
Assay: abundance fitness (aPCA) (normalised: wild type 0, dead -1); higher = more abundant; growth selection in yeast, the domain comes from the species named
Details: Homo sapiens

Abundance fitness of substitutions, site by site:
D20: M -1.19; L -1.08; N -0.456; G -0.589; P -0.625; K -0.357; T -0.706; Y -1.43; W -0.809; V -1.03; C -0.178; E -0.096; A -0.77; H -0.459
R33: C -0.28; F -0.764; Y -0.088; Q -0.006; E -0.022; S -0.112; K 0.084; W -0.39; T -0.024; L -0.026; V -0.073; P 0.038; I -0.106; N -0.127; M -0.046
V39: H 0.067; L -0.079; C -0.014; D -0.258; P -0.249; K -0.449; Q -0.081; S 0.082; E -0.143; R -0.319; G -0.191; T 0.06; M -0.129; I -0.153
S19: A 0.107; K -0.049; R -0.041; L -0.08; Q 0.097; G -0.005; M -0.067; P -0.047; N -0.092; W -0.211; Y -0.296; H 0.093; F -0.146; E 0.07; T 0.049; D -0.18; V -0.032
L27: H -0.03; S 0.052; F 0.099; M -0.012; N 0.311; D -0.029; Y -0.263; P -0.215; V 0.039; G -0.058; E 0.144; W -0.145; T -0.144; K 0.517; I -0.466; Q 0.263
K29: F -0.132; M -0.029; C -0.144; A 0.063; Q -0.016; R 0.07; N 0.153; G 0.097; P -0.054; V -0.149; D -0.211; W 0.018; S 0.059; E -0.039; I -0.037; L -0.286; Y -0.079; H -0.032
C25: F -0.468; Q -1.02; N -1.14; V -1.03; S -1.03; E -0.786; G -0.805; R -1.2; T -0.526; A -1.12; L -1.34; W -1.92; P -0.417; Y -0.841; K -0.951; D -0.834
C17: Y -0.635; W -0.792; V -0.486
H37: R -0.492; L -0.584; K 0.271; A -0.313; G -0.283; Y -0.519; M -0.684; I -1.04; Q -0.365; S -0.482; D -0.274; T -0.295
V31: H 0.108; P 0.014; E 0.149; I -0.091; W -0.428; Y -0.117; L -0.122; M -0.104; D -0.022; F -0.046; N 0.184; S 0.06; Q 0.152; T 0.131; K 0.131; G 0.107
L30: A 0.159; M 0.003; T 0.089; G 0.13; F -0.022; D 0.183; P -0.136; Y -0.071; E 0.096; V 0.003; H -0.012; S 0.189; C 0.026; W -0.095; K 0.348; N 0.078; Q 0.109
Q38: G -0.191; A -0.113; V 0.005; F -0.69; I -0.357; E 0.105; L -0.259; P -0.092; C -0.152; D 0.117; W -0.369; T -0.195; N -0.104; Y -0.16; R -0.002; M -0.25
I24: S -0.179; V 0.058; Q -0.006; R -0.373; A -0.104; K -0.105; T -0.122; G -0.269; H -0.197; D -0.121; E -0.141; C -0.436; M -0.104; P 0.196
R35: C -0.126; M -0.024; D -0.242; A 0.064; T -0.195; I 0.303; W -0.602; L -0.321; E 0.09; H -0.471; G -0.002; V -0.05; F -0.529; K 0.019; Q -0.11; P -0.195
H34: S -0.387; G -0.383; K -0.402; T -0.473; R -0.459; A -0.48; V -0.558; Y -0.634; Q -0.319; L -1.13; D -0.66; E -0.368; M -0.677; W -0.997; N -0.474; F -0.184; P -0.66
Q22: P -0.381; M 0.054; I -0.259; Y -0.264; K 0.05; T -0.062; R 0.1; L -0.177; W -0.515; D -0.19; S 0.049; V -0.012; E -0.113
D21: H -0.283; V -0.585; M -0.316; S -0.088; I -0.951; T -0.163; Y -0.527; N 0.031; Q -0.132; P -0.819; E -0.056; L -0.526; A -0.081; K 0.011
L23: H -0.074; T -0.046; S -0.009; R 0.023; W -0.038; M 0.199; D 0.064; N 0.352; P 0.144; V 0.006; Q 0.099; K 0.213; C 0.049; E 0.137
A26: L -0.296; M -0.359; T -0.068; G 0.103; S -0.006; I -0.621; Q -0.017; K -0.051; P -0.018; R 0.006; H -0.169; F -0.277; D 0.13; E 0.031; V -0.174; Y -0.092
G32: I -0.459; W -0.954; L -0.684; V -0.474; A -0.518; K -0.316; S -0.408; H -0.185; R -0.537; T -0.339; M -0.899; D -0.337; Q -0.472; E -0.248; C -0.589
C28: P -0.439; T -0.541; E -0.897; Y -1.14; V -1.11; R -1.05; K -0.906; A -0.805; M -0.942; W -0.997; G -0.58; Q -0.505; D -0.469; S -0.678
V18: K 0.079; F -0.112; D 0.065; R 0.056; G 0.011; A 0.054; T 0.2; S 0.027; N -0.125; W -0.19; P -0.025; C 0.036; I -0.165; L -0.024
D36: G -0.098; H -0.146; C -0.278; T -0.176; A -0.293; R -0.255; Q -0.235; L -0.125; P -0.311; V -0.3; W -0.311; E 0.036; I -0.34
